Among the data in US20240034816A1 (Sanofi, published 2024) are Kd values, retold here.

This assay addresses T1, recombinant cynomolgus NKp46 extracellular domain with C-terminal Flag-M2 tag (cynomolgus, UniProt Q95JB9 22-254).
T1 construct: range 22-254; also called cyno NKp46; not shown: C-terminal Flag-M2 tag
Briefly: SPR (Biacore 8K), NKCE captured by anti-human Fc, antigen as analyte, 1:1 model; mean of 3 experiments. On the procedure: Measurements were performed in multicycle kinetics experiments for each antibody using a Biacore 8K instrument. In each multicycle experiment the antibodies were captured via an anti-hum a Fc antibody immobilized on a series S CM5 sensor chip (human antibody capture kit, Cytiva, Uppsala, Catalog No. BR1008-39).
The antigens, diluted as described above (concentration range 0.1 nM to 50 nM), were injected at a flow rate of 60 μL/min for 240 sec followed by a dissociation phase of 400 sec. All analyte concentrations were run in duplicate together with multiple buffer blanks for double referencing. Regeneration of the capture surface was performed with regeneration solution (3 mol/L MgCl2) for 60 sec at 30 μL/min. Binding kinetics data were evaluated with the Biacore 8K Evaluation Software version 1.1.1.7442 using a 1:1 binding model with mass transport limitation.
(SPR reads the build-up and loss of mass on a sensor chip optically.)

T1 sequence (Q95JB9 22-254): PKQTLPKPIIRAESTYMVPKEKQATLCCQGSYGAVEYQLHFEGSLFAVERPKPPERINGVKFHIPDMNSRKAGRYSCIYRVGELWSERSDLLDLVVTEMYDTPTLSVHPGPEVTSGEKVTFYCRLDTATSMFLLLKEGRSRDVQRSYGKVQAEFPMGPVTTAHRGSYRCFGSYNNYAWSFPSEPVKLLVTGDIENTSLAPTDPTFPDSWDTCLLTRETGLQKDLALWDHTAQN

B1: NKp46-BCMA_Fc-ADE-DSB NKCE (bispecific antibody, human IgG1, kappa)
light: QTVVTQEPSLTVSPGGTVTLTCASSTGTVTPSNYANWVQQKPGQAFRGLIGDNNSRPPGTPARFSASLLGGKAALTLSGVQPEDEAEYYCALWFGNQWVFGGGTKLTVLGGGGSGGGGSDIQMTQSPSSLSASVGDRVTITCRASQDISNYLNWYQQKPGKAPKLLIYYTSRLHSGVPSRFSGSGSGTDFTFTISSLQPEDIATYFCQQGNTRPWTFGGGTKVEIKGGGGSGGGGSRTVAAPSVFIFPPSDEQLKSGTASVVCLLNNFYPREAKVQWKVDNALQSGNSQESVTEQDSKDSTYSLSSTLTLSKADYEKHKVYACEVTHQGLSSPVTKSFNRGEC
heavy: QVQLVQSGAEVKKPGSSVKVSCKASGYTFSDYVINWVRQAPGQGLEWMGEIYPGSGTNYYNEKFKAKATITADKSTSTAYMELSSLRSEDTAVYYCARRGRYGLYAMDYWGQGTTVTVSSQVQLVESGGGVVQPGRSLRLSCAASGFTFSNFGMHWVRQAPGRGLEWVAVIWSDETNRYYADSVKGRFTVSRDNVKSTVYLQMNSLISEDTAVYYCARDQQYCSSDSCFTWFDPWGQGTLVTVSSASTKGPSVFPLAPSSKSTSGGTAALGCLVKDYFPEPVTVSWNSGALTSGVHTFPAVLQSSGLYSLSSVVTVPSSSLGTQTYICNVNHKPSNTKVDKKVEPKSCDKTHTCPPCPAPELLAGPDVFLFPPKPKDTLMISRTPEVTCVVVDVSHEDPEVKFNWYVDGVEVHNAKTKPCEEQYNSTYRCVSVLTVLHQDWLNGKEYKCKVSNKALPAPEEKTISKAKGQPREPQVYTLPPCRDELTKNQVSLWCLVKGFYPSDIAVEWESNGQPENNYKTTPPVLDSDGSFFLYSKLTVDKSRWQQGNVFSCSVMHEALHNHYTQKSLSLSPG
chain: DKTHTCPPCPAPELLAGPDVFLFPPKPKDTLMISRTPEVTCVVVDVSHEDPEVKFNWYVDGVEVHNAKTKPCEEQYNSTYRCVSVLTVLHQDWLNGKEYKCKVSNKALPAPEEKTISKAKGQPREPQVCTLPPSRDELTKNQVSLSCAVKGFYPSDIAVEWESNGQPENNYKTTPPVLDSDGSFFLVSKLTVDKSRWQQGNVFSCSVMHEALHNRFTQKSLSLSPG
For the molecule B1, the Kd – broadly, a measure of binding affinity in units of concentration – was found to be 16.9 nM.
